Measured values as given in publication PMC8864064, “Molecular Chaperone BRICHOS Inhibits CADASIL-Mutated NOTCH3 Aggregation In Vitro” (Frontiers in Molecular Biosciences, 2022).

B1: NOTCH3 EGF1–5 R133C (CADASIL-mutated truncated human Notch3 extracellular domain, amino acids 1–234) (domain or fragment)
chain: not shown
notes: signal peptide in the construct; human NOTCH3 extracellular domain, first five EGF-like repeats, amino acids 1–234, with the CADASIL mutation R133C (in EGF3); codon-optimized construct derived from Duering et al., 2011; R133C is a common CADASIL mutation found in patients; also called N3 EGF1–5 R133C; R133C mutant

What was measured:
[1] = target: the molecule itself; test: native gel or EMSA; N3 EGF1–5 proteins at 30 µM in 1 × PBS, 37°C for 80 h with and without Bri2 BRICHOS at 1:1 and 1:2 molar; native loading buffer free of DTT and SDS; 6% native PAGE
[2] = target: B1; test: cell-based or functional assay

Binder	binding result [1]	final aggregation intensity of R133C by turbidity at 360 nm, 37°C, 10 µM, BRICHOS at 1:1 molar ratio [2] [% reduction]
NOTCH3 EGF1–5 wildtype (truncated human Notch3 extracellular domain, first five EGF-like repeats, amino acids 1–234) (domain or fragment, signal peptide in the construct; human NOTCH3 extracellular domain, first five EGF-like repeats, amino acids 1–234; codon-optimized construct derived from Duering et al., 2011; also called N3 EGF1–5 WT; WT N3 EGF1–5) not shown	binds	
Recombinant human Bri2 BRICHOS domain (domain or fragment, UniProt Q9Y287 137-231, looked up) FADSDPANIVHDFNKKLTAYLDLNLDKCYVIPLNTSIVMPPRNLLELLINIKAGTYLPQSYLIHEHMVITDRIENIDHLGFFIYRLCHDKETYKL		≤ 50
B1	binds	
